Assays:
[1] = target: Act88F^M305L Drosophila indirect flight muscle (IFM) actin, filamentous (F-Act88F^M305L) (Drosophila melanogaster)
[2] = target: Act88F^WT Drosophila indirect flight muscle (IFM) actin, filamentous (F-Act88F^WT) (Drosophila melanogaster) (UniProt P83967)

rabbit psoas myosin, sequence (Q28641 whole entry, looked up): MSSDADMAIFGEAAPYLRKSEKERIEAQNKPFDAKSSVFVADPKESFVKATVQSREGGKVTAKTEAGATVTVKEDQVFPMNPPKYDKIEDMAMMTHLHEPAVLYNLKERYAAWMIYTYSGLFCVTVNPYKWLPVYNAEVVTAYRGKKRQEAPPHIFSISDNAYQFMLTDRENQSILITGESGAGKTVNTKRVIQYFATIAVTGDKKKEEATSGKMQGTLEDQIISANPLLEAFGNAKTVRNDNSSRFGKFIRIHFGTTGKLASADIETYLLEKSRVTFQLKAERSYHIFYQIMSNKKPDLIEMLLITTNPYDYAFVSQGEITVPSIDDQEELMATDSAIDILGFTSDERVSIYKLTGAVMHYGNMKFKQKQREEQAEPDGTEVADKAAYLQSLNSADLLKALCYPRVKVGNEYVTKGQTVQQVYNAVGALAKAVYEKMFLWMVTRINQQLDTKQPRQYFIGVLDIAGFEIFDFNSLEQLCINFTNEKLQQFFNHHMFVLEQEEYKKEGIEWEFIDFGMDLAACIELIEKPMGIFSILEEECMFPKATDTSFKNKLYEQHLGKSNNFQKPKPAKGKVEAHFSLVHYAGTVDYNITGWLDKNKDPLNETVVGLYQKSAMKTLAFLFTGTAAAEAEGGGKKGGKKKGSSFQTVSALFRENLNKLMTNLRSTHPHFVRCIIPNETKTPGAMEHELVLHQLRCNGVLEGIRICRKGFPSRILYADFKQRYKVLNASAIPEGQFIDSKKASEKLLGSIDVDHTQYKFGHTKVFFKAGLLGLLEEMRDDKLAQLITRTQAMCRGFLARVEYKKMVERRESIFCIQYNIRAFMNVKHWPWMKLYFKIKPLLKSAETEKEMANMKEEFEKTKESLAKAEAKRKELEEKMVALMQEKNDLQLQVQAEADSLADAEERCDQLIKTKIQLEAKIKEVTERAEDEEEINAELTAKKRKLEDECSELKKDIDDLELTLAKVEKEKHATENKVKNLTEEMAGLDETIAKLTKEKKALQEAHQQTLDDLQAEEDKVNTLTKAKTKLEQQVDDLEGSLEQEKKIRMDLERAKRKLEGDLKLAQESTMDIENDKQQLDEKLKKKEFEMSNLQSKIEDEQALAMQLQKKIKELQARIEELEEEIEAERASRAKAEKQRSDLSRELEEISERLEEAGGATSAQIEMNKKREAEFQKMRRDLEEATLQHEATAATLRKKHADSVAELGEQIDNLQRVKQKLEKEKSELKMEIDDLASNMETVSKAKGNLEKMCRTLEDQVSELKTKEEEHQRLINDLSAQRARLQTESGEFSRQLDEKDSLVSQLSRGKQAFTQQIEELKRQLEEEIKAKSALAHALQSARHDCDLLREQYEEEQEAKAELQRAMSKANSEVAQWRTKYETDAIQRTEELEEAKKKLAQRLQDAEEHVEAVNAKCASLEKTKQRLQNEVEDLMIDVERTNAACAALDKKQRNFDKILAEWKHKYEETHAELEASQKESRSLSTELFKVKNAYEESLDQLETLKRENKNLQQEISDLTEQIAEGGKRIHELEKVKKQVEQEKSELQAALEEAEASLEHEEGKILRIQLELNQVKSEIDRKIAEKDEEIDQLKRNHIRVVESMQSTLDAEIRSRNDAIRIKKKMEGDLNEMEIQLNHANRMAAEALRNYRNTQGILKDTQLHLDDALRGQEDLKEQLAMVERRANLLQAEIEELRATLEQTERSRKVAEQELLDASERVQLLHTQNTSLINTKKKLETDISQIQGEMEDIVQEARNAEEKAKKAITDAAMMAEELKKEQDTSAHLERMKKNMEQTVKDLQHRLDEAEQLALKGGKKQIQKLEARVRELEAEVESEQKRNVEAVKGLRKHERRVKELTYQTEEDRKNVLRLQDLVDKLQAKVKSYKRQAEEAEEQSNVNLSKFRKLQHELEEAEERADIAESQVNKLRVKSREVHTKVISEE
porcine cardiac tropomyosin (Tpm), sequence (P42639 whole entry): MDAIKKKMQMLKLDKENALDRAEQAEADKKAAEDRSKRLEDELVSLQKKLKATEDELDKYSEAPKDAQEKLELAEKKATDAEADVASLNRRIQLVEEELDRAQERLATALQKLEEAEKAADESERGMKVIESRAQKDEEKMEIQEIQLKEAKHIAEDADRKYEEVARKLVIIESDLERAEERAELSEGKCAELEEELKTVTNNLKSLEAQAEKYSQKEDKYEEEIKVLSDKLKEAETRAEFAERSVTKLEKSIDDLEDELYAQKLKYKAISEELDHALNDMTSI

Substance	Filaments moving (%) in in vitro motility at 30 °C with 300 nM Tpm, rabbit psoas myosin 12.5 to 100 µg ml^-1 (21.17 to 71.16 %) [1] [%]	Filaments moving (%) in in vitro motility at 30 °C with 300 nM Tpm, rabbit psoas myosin 12.5 to 100 µg ml^-1 (14.96 to 62.87 %) [2] [%]	Filaments moving (%) in in vitro motility at 30 °C without Tpm, rabbit psoas myosin 12.5 to 100 µg ml^-1 (32.57 to 68.00 %) [1] [%]	Filaments moving (%) in in vitro motility at 30 °C without Tpm, rabbit psoas myosin 12.5 to 100 µg ml^-1 (31.02 to 68.11 %) [2] [%]
porcine cardiac tropomyosin (Tpm) (from UniProt P42639 1-284) (natural protein)	71.2	62.9		
rabbit psoas myosin (from UniProt Q28641 1-1938) (complex)			68	68.1

Source: PMC7229152
